{
  "source": "patent US20140323393A1",
  "about": "(CREATIVE BIO PEPTIDES, published 2014)",
  "binders": {"B1": {"name": "All-D-TTNYT (RAP-103) (peptide)", "peptide": "[dT][dT][dN][dY][dT]"}},
  "target": "Toll-like receptor 4 (TLR4) on monocyte-derived iDC",
  "assay": "cell-based or functional assay",
  "note": "Where no end group is shown, it is not given here. [ ]: non-standard residue; d: D form.",
  "data": [
    {"binder": "B1", "values": [
      {"measurement": "IC50 for inhibition of LPS (100 ng/mL) induced TNF-α secretion in monocyte-derived iDC (ELISA of supernatants, FIG. 5)", "value": "~0.1", "unit": "pM"}
    ]}
  ]
}
